The subject of one experiment is cynomolgus CD123. Description: Cross-reactivity of anti-CD123 clones against cynomolgus CD123. It counts as binding.
Experiment [1] deals with MOLM14 (CD123+ tumor cells). Description: CD107a degranulation of CART cells, 2 hours. It counts as cell-based. Particulars: 2-hr in vitro assay, CD123+ targets. As for the experimental part:
To assess degranulation, CART cells (NVS 2-4, 1172 and 1176 clones) were thawed, rested overnight at a concentration of 2e^6 cells/ml in T cell media. Cells were then counted and resuspended at 1e^6 cells/ml the following day. Tumor target cells (TCM, PMA/iono, MOLM14 or JURKAT) were resuspended at 5e^6 cells/ml. Cells were plated at a ratio of 1e^5 T cell: 5e^5 tumor cell in 48 well plates and incubated for 2 hours in the presence of anti-CD107a PECy7, anti-CD49d purified, and anti-CD28 purified antibodies. Cells were then harvested, stained with anti-CD3 APC and acquired using BD LSR Fortessa (FIG. 7).

B1: CAR123-3: fully human anti-CD123 scFv CAR with 4-1BB and CD3zeta; CAR amino acid SEQ ID NO: 100 (protein, listed as Homo sapiens)
chain: MALPVTALLLPLALLLHAARPQVQLVQSGAEVKKPGASVKVSCKASGYIFTGYYIHWVRQAPGQGLEWMGWINPNSGGTNYAQKFQGRVTMTRDTSISTAYMELSGLRSDDPAVYYCARDMNILATVPFDIWGQGTLVTVSSGGGGSGGGGSGGGGSDIQLTQSPSSLSASVGDRVTITCRASQSISSYLNWYQQKPGKAPKLLIYAASSLQSGVPSRFSGSGSGTDFTLTVNSLQPEDFATYYCQQGDSVPLTFGGGTKVEIKTTTPAPRPPTPAPTIASQPLSLRPEACRPAAGGAVHTRGLDFACDIYIWAPLAGTCGVLLLSLVITLYCKRGRKKLLYIFKQPFMRPVQTTQEEDGCSCRFPEEEEGGCELRVKFSRSADAPAYKQGQNQLYNELNLGRREEYDVLDKRRGRDPEMGGKPRRKNPQEGLYNELQKDKMAEAYSEIGMKGERRRGKGHDGLYQGLSTATKDTYDALHMQALPPR
Take B1: the “cross-reactivity against cynomolgus CD123” value (from here on “cross-reactivity”) in the experiment on cynomolgus CD123 was “cross-reactive against cynomolgus CD123”.

B2: 1172: murine CD123 CAR construct, CD123 4-1BBCD3z-CAR, SEQ ID NO: 707, described in PCT/US2014/017328 (protein)
chain: MALPVTALLLPLALLLHAARPGSDIVLTQSPASLAVSLGQRATISCRASESVDNYGNTFMHWYQQKPGQPPKLLIYRASNLESGIPARFSGSGSRTDFTLTINPVEADDVATYYCQQSNEDPPTFGAGTKLELKGGGGSGGGGSSGGGSQIQLVQSGPELKKPGETVKISCKASGYIFTNYGMNWVKQAPGKSFKWMGWINTYTGESTYSADFKGRFAFSLETSASTAYLHINDLKNEDTATYFCARSGGYDPMDYWGQGTSVTVSSASSGTTTPAPRPPTPAPTIASQPLSLRPEACRPAAGGAVHTRGLDFACDIYIWAPLAGTCGVLLLSLVITLYCKRGRKKLLYIFKQPFMRPVQTTQEEDGCSCRFPEEEEGGCELRVKFSRSADAPAYKQGQNQLYNELNLGRREEYDVLDKRRGRDPEMGGKPRRKNPQEGLYNELQKDKMAEAYSEIGMKGERRRGKGHDGLYQGLSTATKDTYDALHMQALPPR
With B2, the “cross-reactivity” value in the experiment on cynomolgus CD123 is listed as “is not”.

B3: 1176: murine CD123 CAR construct, CD123 4-1BBCD3z-CAR (26292), SEQ ID NO: 708, described in PCT/US2014/017328 (protein)
chain: MALPVTALLLPLALLLHAARPGSDVQITQSPSYLAASPGETITINCRASKSISKDLAWYQEKPGKTNKLLIYSGSTLQSGIPSRFSGSGSGTDFTLTISSLEPEDFAMYYCQQHNKYPYTFGGGTKLEIKGGGGSGGGGSSGGGSQVQLQQPGAELVRPGASVKLSCKASGYTFTSYWMNWVKQRPDQGLEWIGRIDPYDSETHYNQKFKDKAILTVDKSSSTAYMQLSSLTSEDSAVYYCARGNWDDYWGQGTTLTVSSASSGTTTPAPRPPTPAPTIASQPLSLRPEACRPAAGGAVHTRGLDFACDIYIWAPLAGTCGVLLLSLVITLYCKRGRKKLLYIFKQPFMRPVQTTQEEDGCSCRFPEEEEGGCELRVKFSRSADAPAYKQGQNQLYNELNLGRREEYDVLDKRRGRDPEMGGKPRRKNPQEGLYNELQKDKMAEAYSEIGMKGERRRGKGHDGLYQGLSTATKDTYDALHMQALPPR
Turning to B3, the “cross-reactivity” value in the experiment on cynomolgus CD123 is reported as “cross-reactive against cynomolgus CD123”. In experiment [1], the “T cell degranulation (CD107a)” value is 65%.

B4: CAR123-4: fully human anti-CD123 scFv CAR with 4-1BB and CD3zeta; CAR amino acid SEQ ID NO: 101 (protein, listed as Homo sapiens)
chain: MALPVTALLLPLALLLHAARPQVQLQQSGAEVKKSGASVKVSCKASGYTFTDYYMHWLRQAPGQGLEWMGWINPNSGDTNYAQKFQGRVTLTRDTSISTVYMELSRLRSDDTAVYYCARDMNILATVPFDIWGQGTMVTVSSASGGGGSGGRASGGGGSDIQMTQSPSSLSASVGDRVTITCRASQSISSYLNWYQQKPGKAPKLLIYAASSLQSGVPSRFSGSGSGTDFTLTISSLQPEDFATYYCQQGDSVPLTFGGGTKVEIKTTTPAPRPPTPAPTIASQPLSLRPEACRPAAGGAVHTRGLDFACDIYIWAPLAGTCGVLLLSLVITLYCK
Consider B4, for which the “cross-reactivity” value in the experiment with cynomolgus CD123 was “cross-reactive against cynomolgus CD123”.

(Values after patent US11591404B2, “Treatment of cancer using a CD123 chimeric antigen receptor” (Novartis AG, priority 2014, dated 2023).)
